Results taken from the Human Domainome abundance scans (Beltran et al. 2025).
± gives the uncertainty stated by the source.

B1: Chromodomain-helicase-DNA-binding protein 5, residues 338 to 390; numbered along this chain, Q8TDI0 (parent)
chain: YETDHQDYCEVCQQGGEIILCDTCPRAYHLVCLDPELEKAPEGKWSCPHCEKE

Variants of: B1
Assay: abundance fitness (aPCA) (normalised: wild type 0, dead -1); higher = more abundant; growth selection in yeast, the domain comes from the species named
Details: Homo sapiens

Variant	abundance fitness
Q14Y	-0.001 ± 0.22
Q14M	0.084 ± 0.16
Q14D	-0.004 ± 0.17
Q14C	-0.378 ± 0.12
Q14L	-0.011 ± 0.11
Q14V	-0.107 ± 0.12
Q14G	0.118 ± 0.12
Q14I	-0.385 ± 0.2
Q14N	-0.065 ± 0.17
Q14H	-0.105 ± 0.17
Q14W	-0.237 ± 0.17
Q14R	-0.019 ± 0.099
Q14A	-0.093 ± 0.17
Q14F	-0.295 ± 0.14
Q14S	0 ± 0.1
Q14T	0.193 ± 0.14
Q14P	-1.04 ± 0.23
C24P	-0.437 ± 0.34
C24D	-1.16 ± 0.35
C24M	-0.772 ± 0.2
C24I	-0.88 ± 0.35
C24T	-0.586 ± 0.19
C24F	-0.567 ± 0.29
C24W	-0.736 ± 0.14

Variant	abundance fitness
C24L	-0.682 ± 0.13
C24R	-0.804 ± 0.12
C24E	-0.979 ± 0.21
C24Y	-0.784 ± 0.16
C24N	-1.15 ± 0.48
C24K	-0.917 ± 0.23
C24S	-0.753 ± 0.13
C24Q	-0.879 ± 0.21
C24V	-0.979 ± 0.16
R26Y	-0.144 ± 0.19
R26G	-0.029 ± 0.089
R26W	-0.18 ± 0.14
R26V	-0.207 ± 0.13
R26I	-0.059 ± 0.19
R26T	-0.436 ± 0.26
R26C	0.012 ± 0.15
R26A	0.009 ± 0.13
R26M	0.144 ± 0.14
R26D	-0.296 ± 0.16
R26P	-0.87 ± 0.23
R26H	0.493 ± 0.19
R26L	0.154 ± 0.12
R26Q	0.205 ± 0.16
R26F	-0.211 ± 0.17

Variant	abundance fitness
R26S	0.002 ± 0.1
R26K	0.094 ± 0.17
C21A	-0.563 ± 0.14
C21Y	-0.739 ± 0.17
C21M	-0.701 ± 0.18
C21R	-0.929 ± 0.14
C21K	-0.805 ± 0.2
C21T	-0.995 ± 0.23
C21L	-0.872 ± 0.15
C21W	-1.08 ± 0.23
C21I	-0.912 ± 0.35
C21F	-1.22 ± 0.28
C21E	-1.08 ± 0.28
C21G	-0.853 ± 0.11
C21S	-0.811 ± 0.13
C21Q	-0.973 ± 0.28
C21V	-0.519 ± 0.13
C21N	-0.889 ± 0.27
C21D	-0.921 ± 0.17
C21P	-0.907 ± 0.2
L20E	-0.119 ± 0.16
L20G	0.297 ± 0.087
L20F	0.078 ± 0.14
L20V	0.051 ± 0.1

Variant	abundance fitness
L20R	0.266 ± 0.092
L20Q	0.414 ± 0.16
L20D	0.127 ± 0.17
L20S	0.233 ± 0.1
L20N	0.091 ± 0.16
L20P	0.234 ± 0.14
L20H	0.224 ± 0.15
L20A	0.139 ± 0.12
L20K	0.099 ± 0.14
L20Y	0.169 ± 0.15
L20I	-0.095 ± 0.15
L20T	0.258 ± 0.14
L20M	0.371 ± 0.17
G16C	-0.336 ± 0.27
G16S	0.114 ± 0.13
G16M	0.255 ± 0.14
G16N	0.259 ± 0.19
G16R	0.098 ± 0.1
G16Q	0.183 ± 0.23
G16L	0.239 ± 0.11
G16E	0.027 ± 0.11
G16A	-0.037 ± 0.11
G16I	-0.195 ± 0.28
G16H	0.435 ± 0.22

Variant	abundance fitness
G16Y	0.193 ± 0.2
G16V	-0.17 ± 0.1
G16T	0.265 ± 0.13
I18G	0.047 ± 0.097
I18C	-0.508 ± 0.15
I18M	0.007 ± 0.14
I18F	-0.058 ± 0.16
I18T	0.021 ± 0.15
I18K	0.137 ± 0.22
I18A	0.177 ± 0.12
I18N	0.039 ± 0.22
I18R	0.021 ± 0.1
I18S	0.065 ± 0.11
I18V	-0.286 ± 0.12
I18W	-0.02 ± 0.12
I18Q	0.28 ± 0.18
I18E	-0.454 ± 0.19
I18P	-0.228 ± 0.17
I18Y	0.145 ± 0.18
I18H	0.03 ± 0.18
I18D	-0.172 ± 0.17
I18L	-0.098 ± 0.1
P25G	-0.001 ± 0.11
P25T	0.057 ± 0.16

Variant	abundance fitness
P25K	0.109 ± 0.21
P25E	-0.287 ± 0.21
P25W	-0.081 ± 0.16
P25Q	-0.093 ± 0.23
P25S	-0.1 ± 0.14
P25N	-0.084 ± 0.22
P25C	-0.278 ± 0.3
P25I	0.064 ± 0.24
P25H	-0.833 ± 0.43
P25M	-0.167 ± 0.2
P25R	-0.107 ± 0.12
P25L	-0.157 ± 0.13
P25V	-0.124 ± 0.12
P25Y	-0.08 ± 0.34
L30A	0.094 ± 0.1
L30C	-0.096 ± 0.18
A27I	-0.021 ± 0.21
A27C	-0.093 ± 0.18
A27H	-0.097 ± 0.18
A27V	-0.211 ± 0.12
A27D	-0.258 ± 0.17
A27S	-0.133 ± 0.12
A27T	0.074 ± 0.14
A27Q	0.171 ± 0.19

Variant	abundance fitness
A27W	-0.186 ± 0.17
A27P	-0.231 ± 0.14
A27L	-0.204 ± 0.13
A27R	-0.086 ± 0.1
A27N	0.048 ± 0.21
A27E	-0.55 ± 0.15
A27K	-0.242 ± 0.21
A27M	-0.29 ± 0.17
A27F	-0.027 ± 0.14
A27Y	-0.159 ± 0.24
I19E	-0.056 ± 0.13
I19G	-0.177 ± 0.094
I19M	0.256 ± 0.13
I19Y	-0.226 ± 0.2
I19R	0.115 ± 0.088
I19F	0.051 ± 0.22
I19N	0.161 ± 0.16
I19P	-1.07 ± 0.21
I19A	0.109 ± 0.1
I19V	-0.085 ± 0.11
I19S	-0.104 ± 0.12
I19Q	0.029 ± 0.15
I19C	-0.137 ± 0.16
I19H	0.128 ± 0.19

Variant	abundance fitness
I19T	0.303 ± 0.12
I19K	0.315 ± 0.16
I19D	-0.023 ± 0.15
I19L	0.121 ± 0.11
E10L	0.175 ± 0.098
E10Q	0.024 ± 0.13
E10Y	0.209 ± 0.14
E10R	0.043 ± 0.11
E10T	-0.004 ± 0.14
E10M	-0.07 ± 0.18
E10S	-0.112 ± 0.11
E10W	0.234 ± 0.14
E10N	0.338 ± 0.18
C12H	-0.539 ± 0.21
C12E	-0.866 ± 0.14
C12V	-0.759 ± 0.11
C12F	-0.788 ± 0.15
C12T	-0.776 ± 0.12
C12L	-0.901 ± 0.1
C12R	-1 ± 0.12
C12G	-0.752 ± 0.11
C12K	-0.652 ± 0.13
C12I	-0.912 ± 0.16
C12S	-1.04 ± 0.13

Variant	abundance fitness
C12P	-0.901 ± 0.13
C12Y	-0.891 ± 0.15
C12A	-0.688 ± 0.11
C12M	-0.671 ± 0.13
C12Q	-0.79 ± 0.13
C12W	-1.02 ± 0.16
C12N	-0.318 ± 0.2
Q13M	0.002 ± 0.13
Q13H	-0.268 ± 0.23
Q13P	-0.097 ± 0.14
Q13I	-0.204 ± 0.17
Q13N	0.029 ± 0.18
Q13S	0.157 ± 0.094
Q13C	-0.076 ± 0.14
Q13D	-0.191 ± 0.13
Q13V	0.056 ± 0.096
Q13E	-0.091 ± 0.14
Q13A	-0.034 ± 0.1
Q13K	-0.233 ± 0.15
Q13F	-0.258 ± 0.15
Q13L	-0.109 ± 0.091
Q13T	-0.185 ± 0.11
Q13G	0.18 ± 0.084
Q13W	-0.104 ± 0.1

Variant	abundance fitness
Q13Y	-0.198 ± 0.16
Q13R	0.163 ± 0.085
D22E	-0.101 ± 0.2
D22H	-0.078 ± 0.24
D22K	-0.171 ± 0.19
D22M	-0.185 ± 0.14
D22I	-0.177 ± 0.21
D22S	-0.244 ± 0.12
D22C	-0.432 ± 0.15
D22L	-0.059 ± 0.12
D22R	-0.067 ± 0.1
D22A	0.149 ± 0.15
D22T	0.187 ± 0.17
D22N	-0.015 ± 0.14
D22F	-0.597 ± 0.21
D22P	0.111 ± 0.13
D22W	-0.373 ± 0.17
D22Y	0.088 ± 0.21
V11W	-0.038 ± 0.13
V11Y	0.033 ± 0.14
V11T	0.341 ± 0.11
V11C	0.179 ± 0.17
V11L	0.245 ± 0.093
V11G	0.376 ± 0.094

Variant	abundance fitness
V11S	0.27 ± 0.09
V11K	0.481 ± 0.13
V11M	0.459 ± 0.11
V11A	0.095 ± 0.1
V11D	0.018 ± 0.15
V11N	-0.013 ± 0.14
V11E	0.397 ± 0.1
V11P	0.061 ± 0.11
V11H	0.691 ± 0.15
G15W	-0.136 ± 0.14
G15Y	0.083 ± 0.17
G15D	-0.167 ± 0.18
G15I	-0.414 ± 0.39
G15C	0.021 ± 0.14
G15R	0.141 ± 0.09
G15L	-0.209 ± 0.14
G15M	0.143 ± 0.2
G15E	-0.112 ± 0.16
G15N	0.116 ± 0.19
G15A	0.176 ± 0.13
G15V	-0.143 ± 0.12
G15K	0.155 ± 0.16
G15Q	-0.103 ± 0.15
G15P	-0.553 ± 0.19

Variant	abundance fitness
G15T	-0.014 ± 0.14
Y28W	-0.098 ± 0.12
Y28V	0.054 ± 0.12
Y28D	-0.713 ± 0.28
Y28P	-0.85 ± 0.22
Y28E	-0.668 ± 0.19
Y28R	0.023 ± 0.096
Y28G	-0.125 ± 0.092
Y28N	-0.193 ± 0.28
Y28L	-0.148 ± 0.13
Y28H	-0.158 ± 0.23
Y28C	0.001 ± 0.16
Y28A	-0.085 ± 0.14
Y28F	-0.315 ± 0.19
Y28Q	-0.709 ± 0.19
Y28M	-0.148 ± 0.16
Y28I	-0.293 ± 0.2
Y28S	-0.075 ± 0.12
E17P	-0.445 ± 0.17
E17Q	-0.377 ± 0.21
E17M	0.1 ± 0.18
E17N	0.2 ± 0.2
E17W	0.188 ± 0.14
E17I	0.227 ± 0.21

Variant	abundance fitness
E17L	-0.096 ± 0.12
E17F	-0.213 ± 0.18
E17G	-0.07 ± 0.09
E17K	0.105 ± 0.16
E17T	-0.109 ± 0.19
E17D	-0.182 ± 0.16
E17R	-0.189 ± 0.1
E17V	-0.358 ± 0.1
E17H	-0.435 ± 0.32
E17C	-0.105 ± 0.13
E17S	-0.354 ± 0.13
H29C	0.053 ± 0.16
H29M	-0.547 ± 0.17
H29S	-0.882 ± 0.15
H29N	-0.766 ± 0.32
H29L	-1.14 ± 0.15
H29T	-0.986 ± 0.2
H29E	-0.736 ± 0.16
H29G	-0.744 ± 0.099
H29K	-0.793 ± 0.17
H29D	-0.451 ± 0.15
H29Q	-0.887 ± 0.2
H29W	-0.822 ± 0.17
H29P	-0.672 ± 0.16

Variant	abundance fitness
H29F	-1.07 ± 0.39
H29A	-0.5 ± 0.12
H29Y	-0.719 ± 0.18
H29V	-1.1 ± 0.15
T23R	-0.12 ± 0.12
T23S	-0.01 ± 0.12
T23F	0.166 ± 0.16
T23Y	-0.161 ± 0.19
T23N	0.034 ± 0.17
T23I	-0.135 ± 0.2
T23L	-0.07 ± 0.12
T23G	-0.305 ± 0.11
T23M	0.114 ± 0.17
T23P	-0.922 ± 0.22
T23C	-0.177 ± 0.23
T23Q	-0.15 ± 0.2
T23A	-0.545 ± 0.13
T23D	-0.09 ± 0.17
T23W	-0.443 ± 0.17
T23E	0.026 ± 0.17
T23H	-0.397 ± 0.23
T23K	-0.457 ± 0.22
